Test results: publication PMC4428900
Like-named read-outs stand apart in the source and are kept apart here.

Assays:
[1] = target: NS4B (genotype 1b) fused to mCherry (Hepatitis C virus genotype 1b) (UniProt Q9WMX2); assay: FRET or BRET
[2] = target: NS4B (genotype 1b) fused to GFP (Hepatitis C virus genotype 1b) (UniProt Q9WMX2); assay: FRET or BRET
[3] = target: NS4B (genotype 2a) fused to mCherry (Hepatitis C virus genotype 2a) (UniProt Q99IB8); assay: FRET or BRET
[4] = target: pBIND-NS4B C-terminal domain W204A (Hepatitis C virus genotype 2a); assay: two-hybrid
[5] = target: NS4B (genotype 2a) W204A fused to mCherry (Hepatitis C virus genotype 2a); assay: FRET or BRET
[6] = target: NS4B (genotype 2a) fused to mCherry (Hepatitis C virus genotype 2a) (UniProt Q99IB8); assay: FRET or BRET; remark: listed apart in the source

Substance “NS4B (genotype 1b) fused to GFP (from UniProt Q9WMX2 1712-1972) (natural protein)” has a mean FRET efficiency (EF) [1] of 6.6.
Substance “NS5A (genotype 1b) fused to mCherry (from UniProt Q9WMX2 1973-2419) (natural protein)” has a mean FRET efficiency (EF) [2] of 6.
For “NS5A (genotype 2a) a.a. 1–352 fused to GFP (domain or fragment)”, the mean FRET efficiency (Ef) [3] was 9.3.
“pACT-NS5A (full length NS5A of genotype 2a fused to VP16) (from UniProt Q99IB8 1977-2442) (natural protein)” was tested, and the reduction in luciferase activity compared to the wild type [4] was 30%.
“NS5A (genotype 2a) fused to GFP (from UniProt Q99IB8 1977-2442) (natural protein)” gave a mean FRET efficiency (Ef) [5] of 1.3, a mean FRET efficiency (Ef) [6] of 6.5 and a mean FRET efficiency (EF) [1] of 6.5. For the same substance, the mean FRET efficiency (EF) [3] was 5.5 and the mean FRET efficiency (Ef) [3] was 9.6.
